Source: patent US20260240908A1 (FRED HUTCHINSON CANCER CENTER, published 2026)
Blank lines part the entries; values can stand above or below the binder they belong to.

Key:
[1] = biological target: T1, PE- or biotin-conjugated human PD-1 Fc fusion protein (Acrobiosystems) (human, UniProt Q15116 25-167, limits assumed, PE- or biotin-conjugated); test: flow cytometry, PD-1 Fc staining of transduced Jurkat Nur77-NeonGreen cells
T1 construct: Bought reagent (Acrobiosystems); also called PD-1-Fc-PE; PD-1 Fc chimera; not shown: Fc part of the bought fusion protein
Excerpt: The biotin-conjugated PD-1-Fc protein was counterstained with BV421-conjugated Streptavidin (Invitrogen).
The EGFRt-tag was detected as a surrogate marker for CAR expression for the six constructs (FIGS. 2A and 9). CARs directed against antigens expressed in T cells may at times lead to fratricide and hamper CAR T cell production.

[2] = biological target: T2, PD-1 on the cell surface (Molt-4 cells; KG PD-1 cells) (UniProt Q15116 25-288, limits assumed); test: flow cytometry of detectable cell surface PD-1 on Molt-4 cells that co-express the CAR (masking in cis)
T2 construct: whole, on cells; Molt-4 is a human acute lymphoblastic leukemia line; also called PD-1-expressing Molt 4 cells; K562 GFP (KG) PD-1 cells
T2 sequence (Q15116 25-288 limits assumed): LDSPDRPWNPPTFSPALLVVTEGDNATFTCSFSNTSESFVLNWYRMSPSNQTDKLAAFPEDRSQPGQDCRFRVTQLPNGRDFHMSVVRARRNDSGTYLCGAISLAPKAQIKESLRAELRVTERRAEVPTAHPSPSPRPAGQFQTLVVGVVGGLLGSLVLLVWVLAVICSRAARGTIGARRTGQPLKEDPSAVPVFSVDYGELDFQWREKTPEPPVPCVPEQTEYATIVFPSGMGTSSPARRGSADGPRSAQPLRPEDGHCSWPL

T1 sequence (Q15116 25-167 limits assumed): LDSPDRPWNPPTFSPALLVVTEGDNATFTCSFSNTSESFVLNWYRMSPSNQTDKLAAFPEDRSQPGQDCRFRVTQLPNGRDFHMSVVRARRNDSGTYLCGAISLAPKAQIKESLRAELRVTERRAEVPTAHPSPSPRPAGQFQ

binding result [1]: no binding
binding result [2]: no binding
B1: VH VL S anti-PD-1 CAR BD (binding-defective) (other)
chain: QVQLVQSGVEVKKPGASVKVSCKASGYTFANYFMYWVRQAPGQGLEWMGGIAPAAGGAAFNEKFKNRVTLTTDSSTTTAYMELKSLQFDDTAVYYCARADFAFDMGFDYWGQGTTVTVSSASTKGGGGGSGGGGSGGGGSEIVLTQSPATLSLSPGERATLSCRASKGVSTAGFSYLHWYQQKPGQAPRLLIFLASFLESGVPARFSGSGSGTDFTLTISSLEPEDFAVYYCQHARALPLTFGGGTKVEIKRTVAAPSVFIFPPSDEQLKSGTAESKYGPPCPPCPMFWVLVVVGGVLACYSLLVTVAFIIFWVKRGRKKLLYIFKQPFMRPVQTTQEEDGCSCRFPEEEEGGCELRVKFSRSADAPAYQQGQNQLYNELNLGRREEYDVLDKRRGRDPEMGGKPRRKNPQEGLYNELQKDKMAEAYSEIGMKGERRRGKGHDGLYQGLSTATKDTYDALHMQALPPR
notes: Residues 1-22 are the GM-CSF signal peptide, left out

binding result [1]: no binding
binding result [2]: no binding
B2: VH VL S anti-PD-1 CAR BD ΔCD3ζ (other)
chain: QVQLVQSGVEVKKPGASVKVSCKASGYTFANYFMYWVRQAPGQGLEWMGGIAPAAGGAAFNEKFKNRVTLTTDSSTTTAYMELKSLQFDDTAVYYCARADFAFDMGFDYWGQGTTVTVSSASTKGGGGGSGGGGSGGGGSEIVLTQSPATLSLSPGERATLSCRASKGVSTAGFSYLHWYQQKPGQAPRLLIFLASFLESGVPARFSGSGSGTDFTLTISSLEPEDFAVYYCQHARALPLTFGGGTKVEIKRTVAAPSVFIFPPSDEQLKSGTAESKYGPPCPPCPMFWVLVVVGGVLACYSLLVTVAFIIFWVKRGRKKLLYIFKQPFMRPVQTTQEEDGCSCRFPEEEEGGCEL
notes: as for B1
